Measurements taken from patent US20150368338A1 (Janssen / Centocor, published 2015).
Where a chain is given by its changes, count along the chain named.

T1: IFN-αF (human, UniProt P01568 24-189)
T1 construct: also called IFN-α21; alpha F
T1 chain: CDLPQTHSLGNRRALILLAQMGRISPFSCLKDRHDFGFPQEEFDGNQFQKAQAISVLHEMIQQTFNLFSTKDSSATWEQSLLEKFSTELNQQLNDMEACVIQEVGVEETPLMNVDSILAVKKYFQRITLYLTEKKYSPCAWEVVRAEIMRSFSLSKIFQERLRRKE

B1: IFWM3327 (antibody, V domains shown)
VH: EVQLVQSGAEVKKPGESLKISCKGSGYSFTSYWIGWVRQMPGKGLEWMGIIDPSDSDTRYSPSFQGQVTISADKSISTAYLQWSSLKASDTAMYYCARHPGLNWAPDFDYWGQGTLVTVSS
VL: DIQMTQSPSSLSASVGDRVTITCRASQSIANNNLNWYQQKPGKAPKLLIHWASSLQSGVPSRFSGSGSGTDFTLTISSLQPEDFATYYCQQGYDTPFTFGQGTKVEIK
notes: VH IFWH591, VL IFWL1063; converted mAb; also called IFWB3062
B2: IFWM3331 (antibody, V domains shown)
VH: B1 VH
VL: B1 VL with A30D, N32S, N33Y, H50Y, W51G, Y93W, T95W, F97L
notes: VH IFWH591, VL IFWL1073; converted mAb; also called IFWB3066
B3: IFWM3355 (antibody, V domains shown)
VH: B1 VH with R59A
VL: DIQMTQSPSSLSASVGDRVTITCRASQSINEFLNWYQQKPGKAPKLLIYFASSLQSGVPSRFSGSGSGTDFTLTISSLQPEDFATYYCQQSYSTPLTFGQGTKVEIK
notes: VH IFWH624, VL IFWL1022; converted mAb; also called IFWB3090
B4: IFWM3364 (antibody, V domains shown)
VH: B1 VH with R59A
VL: B3 VL with N30R, E31N, F32S, Y49K, F50W, S91L, S93D, T94W
notes: VH IFWH624, VL IFWL1060; converted mAb; also called IFWB3099
B5: IFWM3353 (antibody, V domains shown)
VH: B1 VH with R59A
VL: B3 VL with N30D, E31R, F32A, Y92F, S93D, T94F
notes: VH IFWH624, VL IFWL1014; converted mAb; also called IFWB3088
B6: IFWM3345 (antibody, V domains shown)
VH: B1 VH with R59A
VL: B3 VL with N30T, E31N, Y92L, S93D, T94F
notes: VH IFWH624, VL IFWL1000; converted mAb; also called IFWB3080
B7: IFWM3332 (antibody, V domains shown)
VH: B1 VH
VL: B1 VL with N32T, G92W, T95N, F97L
notes: VH IFWH591, VL IFWL1074; converted mAb; also called IFWB3067
B8: IFWM3346 (antibody, V domains shown)
VH: B1 VH with R59A
VL: B3 VL with N30G, E31D, S91A, Y92L, S93D, T94F
notes: VH IFWH624, VL IFWL1001; converted mAb; also called IFWB3081
B9: IFWM3333 (antibody, V domains shown)
VH: B1 VH
VL: B1 VL with A30D, H50Y, W51A, T95W, F97L
notes: VH IFWH591, VL IFWL1076; converted mAb; also called IFWB3068
B10: IFWM3350 (antibody, V domains shown)
VH: B1 VH with R59A
VL: B3 VL with N30D, E31D, Y92H, S93T, T94L
notes: VH IFWH624, VL IFWL1009; converted mAb; also called IFWB3085
B11: IFWM3354 (antibody, V domains shown)
VH: B1 VH with R59A
VL: B3 VL with N30T, E31S, F32S, Y92F, S93D, T94L
notes: VH IFWH624, VL IFWL1017; converted mAb; also called IFWB3089
B12: IFWM3336 (antibody, V domains shown)
VH: B1 VH
VL: B1 VL with A30R, N33Y, H50Y, W51A, F97L
notes: VH IFWH591, VL IFWL1085; converted mAb; also called IFWB3071
B13: IFWM3352 (antibody, V domains shown)
VH: B1 VH with R59A
VL: B3 VL with E31N, Y92F, S93N, T94L, L96I
notes: VH IFWH624, VL IFWL1013; converted mAb; also called IFWB3087

Each binder was assayed against T2, human IFN-ω (human, UniProt P05000 24-195) (assay: ProteOn, one antigen concentration).
T2 construct: also called interferon omega
Excerpt: (§1) To increase the assay throughput, only one concentration of the individual antigen was used.

| Binder | Kd |
| --- | --- |
| B1 | 0.039 nM |
| B2 | 0.015 nM |
| B3 | 0.026 nM |
| B4 | 0.013 nM |
| B5 | 0.006 nM |
| B6 | 0.004 nM |
| B7 | 0.034 nM |
| B8 | 0.052 nM |
| B9 | 0.053 nM |
| B10 | 0.02 nM |
| B11 | 0.017 nM |
| B12 | 0.019 nM |
| B13 | 0.06 nM |

These binders were tested against T3, IFN-αC (human, UniProt P01566 24-189) (assay: ProteOn, one antigen concentration).
T3 construct: also called IFN-α10; alpha C
Excerpt: as §1

| Binder | Kd |
| --- | --- |
| B1 | 0.034 nM |
| B2 | 0.012 nM |
| B3 | 0.055 nM |
| B4 | 0.093 nM |
| B5 | 0.054 nM |
| B6 | 0.072 nM |
| B7 | 0.031 nM |
| B8 | 0.105 nM |
| B9 | 0.065 nM |
| B10 | 0.057 nM |
| B11 | 0.043 nM |
| B12 | 0.047 nM |
| B13 | 0.121 nM |

Target: T1, IFN-αF
Experiment: ProteOn, one antigen concentration
Excerpt: as §1

| Binder | Kd |
| --- | --- |
| B1 | 0.035 nM |
| B2 | 0.013 nM |
| B3 | 0.052 nM |
| B4 | 0.109 nM |
| B5 | 0.055 nM |
| B6 | 0.12 nM |
| B7 | 0.054 nM |
| B8 | 0.117 nM |
| B9 | 0.089 nM |
| B10 | 0.054 nM |
| B11 | 0.032 nM |
| B12 | 0.061 nM |
| B13 | 0.152 nM |

These binders were tested against T4, IFN-αJ1 (human, UniProt P01567 24-189) (assay: ProteOn, one antigen concentration).
T4 construct: also called IFN-α7; alpha J1
Excerpt: as §1

| Binder | Kd |
| --- | --- |
| B1 | 0.113 nM |
| B2 | 0.072 nM |
| B3 | 0.079 nM |
| B4 | 0.254 nM |
| B5 | 0.095 nM |
| B6 | 0.169 nM |
| B7 | 0.135 nM |
| B8 | 0.505 nM |
| B9 | 0.607 nM |
| B10 | 0.055 nM |
| B11 | 0.098 nM |
| B12 | 0.11 nM |
| B13 | 0.287 nM |

These binders were tested against T5, IFN-α4a (human, UniProt P05014 24-189) (assay: ProteOn, one antigen concentration).
T5 construct: also called IFN-αM1
Excerpt: as §1

| Binder | Kd |
| --- | --- |
| B1 | 0.164 nM |
| B2 | 0.085 nM |
| B3 | 0.122 nM |
| B4 | 0.269 nM |
| B5 | 0.11 nM |
| B6 | 0.324 nM |
| B7 | 0.139 nM |
| B8 | 0.48 nM |
| B9 | 0.477 nM |
| B10 | 0.161 nM |
| B11 | 0.123 nM |
| B12 | 0.235 nM |
| B13 | 0.267 nM |

The binders below were run against T6, IFN-αG (human, UniProt P01569 24-189) (assay: ProteOn, one antigen concentration).
T6 construct: also called IFN-α5; alpha G
Excerpt: as §1

| Binder | Kd |
| --- | --- |
| B1 | 0.035 nM |
| B2 | 0.015 nM |
| B3 | 0.06 nM |
| B4 | 0.08 nM |
| B5 | 0.016 nM |
| B6 | 0.092 nM |
| B7 | 0.05 nM |
| B8 | 0.086 nM |
| B9 | 0.077 nM |
| B10 | 0.098 nM |
| B11 | 0.043 nM |
| B12 | 0.051 nM |
| B13 | 0.09 nM |

These binders were tested against T7, IFN-αWA (human, UniProt P05015 24-189) (assay: ProteOn, one antigen concentration).
T7 construct: also called IFN-α16; alpha WA
Excerpt: as §1

| Binder | Kd |
| --- | --- |
| B1 | 0.106 nM |
| B2 | 0.026 nM |
| B3 | 0.041 nM |
| B4 | 0.118 nM |
| B5 | 0.031 nM |
| B6 | 0.111 nM |
| B7 | 0.076 nM |
| B8 | 0.17 nM |
| B9 | 0.258 nM |
| B10 | 0.066 nM |
| B11 | 0.052 nM |
| B12 | 0.105 nM |
| B13 | 0.087 nM |
